Here are results for 15 molecules from patent US20140072563A1 (Regeneron, published 2014).

T1: ErbB3-mFc (human)
T1 construct: Dimeric soluble ErbB3; also called hErbB3.mFc
T1 chain: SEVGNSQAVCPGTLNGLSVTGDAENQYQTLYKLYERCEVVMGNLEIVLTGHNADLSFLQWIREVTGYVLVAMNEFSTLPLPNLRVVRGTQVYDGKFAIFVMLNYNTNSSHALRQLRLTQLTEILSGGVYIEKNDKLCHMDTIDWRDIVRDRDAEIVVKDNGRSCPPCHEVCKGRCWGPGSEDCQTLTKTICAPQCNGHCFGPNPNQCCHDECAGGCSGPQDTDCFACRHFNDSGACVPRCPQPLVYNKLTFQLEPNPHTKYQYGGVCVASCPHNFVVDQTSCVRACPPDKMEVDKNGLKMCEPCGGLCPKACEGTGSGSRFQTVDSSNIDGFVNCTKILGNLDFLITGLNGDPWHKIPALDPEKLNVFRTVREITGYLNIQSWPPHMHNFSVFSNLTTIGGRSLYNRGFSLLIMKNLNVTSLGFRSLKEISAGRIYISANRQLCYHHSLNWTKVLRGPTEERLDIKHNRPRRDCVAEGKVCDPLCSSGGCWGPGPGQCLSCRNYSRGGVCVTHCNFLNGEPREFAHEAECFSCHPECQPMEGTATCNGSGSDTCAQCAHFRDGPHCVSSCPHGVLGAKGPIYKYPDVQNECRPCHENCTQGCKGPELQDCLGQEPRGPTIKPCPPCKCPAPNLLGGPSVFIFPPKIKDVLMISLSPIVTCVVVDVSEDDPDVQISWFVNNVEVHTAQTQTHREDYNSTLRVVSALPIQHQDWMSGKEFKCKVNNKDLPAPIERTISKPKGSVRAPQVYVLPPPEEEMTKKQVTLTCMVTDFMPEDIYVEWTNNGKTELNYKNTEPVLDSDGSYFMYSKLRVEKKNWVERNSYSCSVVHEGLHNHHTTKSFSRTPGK

B1: H1M1819N (antibody, V domains shown)
VH: EVQLVESGGGVVRPGGSLRLSCAASGFTFDDYAMHWVRQAPGKGLEWVAGISWNSGSIDYADSVKGRFTISRDNAKNSLYLQMNSLRAGDTALYYCAKDILDLDYYGLDVWGQGTTVTVSS
VL: DIQMTQSPSSLSASVGDRVTITCRASQDISSYLAWYQQKPGKVPNLLIYDASSLQSGVPSRFSGSGSGTDFTLTLSSLQPEDFASYYCQNYNSAPYTFGQGTKLEIK
B2: H2M1824N (antibody, mouse IgG2, V domains shown)
VH: EVQLVESGGGVVRPGGSLRLSCAASGFTFDDYGMSWVRQAPGKGLECVSGINWNGGSTDYADSVKGRFTISRDNAKNSLYLQMNSLRAEDTASYYCARDGGDWDYFDLWGRGTLVTVSS
VL: EIVMTQSPATLSVSPGERATLSCRASQSVSSNLAWYQQKPGQAPRLLIYGASTRATGIPARFSGSGSGTEFTLTISSLQSEDFAVYFCQEYNDWPLTFGGGTKVEIK
B3: H2M1829N (antibody, mouse IgG2, V domains shown)
VH: EVQLVESGGGVVRPGGSLRLSCVASGFTFDDYGMSWVRQAPGKGLECVSGINWNGGSTDYADSVKGRFTISRDNAKNSLYLQMNSLRAEDTALYHCARDGGDWDYFDLWGRGTLVTVSS
VL: EILMTQSPATLSVSPGERATLSCRASQSVSSNLAWYQQKPGQAPRLLIYGASTRATGIPARFSGSGSGTEFTLTISSLQSEDFAIYYCQEYNDWPLTFGGGTKVEIK
B4: H2M1827N (antibody, mouse IgG2, V domains shown)
VH: EVQLVESGGGVVRPGGSLRLSCAASGFTFDDYGMSWVRQAPGKGLECVSGISWNGGNTDYADSVKGRFTISRDNAKNSLYLQMNSLRAEDTALYHCARDGGDWDYFDLWGRGTLVTVSS
VL: EILMTQSPATLSVSPGERATLSCRASQSVSSNLAWYQQKPGQAPRLLIYGASTRATGIPARFSGSGSGTEFTLTISSLQSEDFAIYYCQEYNDWPLTFGGGTKVEIK
B5: H2M1821N (antibody, mouse IgG2, V domains shown)
VH: EVQLVESGGGLVQPGRSLRLSCAASGFTFDDYAMHWVRQAPGKGLEWVSSISWNSGSIGYADSVKGRFTISRDNAKNSLYLQMNSLKPEDTALYYCTKDTDYGDYLDAFDIWGQGTMVAVAS
VL: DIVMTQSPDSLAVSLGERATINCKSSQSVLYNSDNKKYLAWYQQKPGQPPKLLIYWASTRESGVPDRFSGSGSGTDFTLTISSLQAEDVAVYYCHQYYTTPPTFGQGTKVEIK
B6: H1M1828N (antibody, V domains shown)
VH: EVQLVESGGGLVQPGRSLRLSCAASGFTFDDYAMYWVRQAPGKGLEWVSGISWNSGSIGYADSVKGRFTISRDNAKNSLYLQMDSLRAEDTALYYCARDMMEVDLYGMDVWGQGTTVTVSS
VL: DIQMTQSPSSVSASVGDRVTITCRASQDISSWLAWYQQKPGTAPKFLIYETSSLQSGVPSRFSGSGSGTDFILTISSLQPEDFATYYCQQTDSFPHTFGQGTKLEIR
B7: H4H2153P (antibody, human IgG4, V domains shown)
VH: QVQLVQSGAEVKKPGASVKVSCKASGYTFTRYGISWVRQAPGLGLEWMGWISAYDGYTNFAQKFQGRFTMTTDTSTNTAYMELRGLRSDDTAVYYCAREEEDAAFDIWGQGTMVTVSS
VL: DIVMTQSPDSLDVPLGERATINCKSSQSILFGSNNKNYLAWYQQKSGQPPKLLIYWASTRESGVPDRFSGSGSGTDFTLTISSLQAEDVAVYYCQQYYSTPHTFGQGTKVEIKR
notes: Human IgG4 Fc (prefix H4H)
B8: H4H2148P (antibody, human IgG4, V domains shown)
VH: EVQLVESGGGLVHPGRSLRLSCAASGFTFDDYAMHWVRQSPGKGLEWVSGISWNSVIKHSTDSVRGRFTISRDNAKNSLYLQMNSLKPEDTAFYYCAKDEDDWNYLDYWGQGTLVTVSS
VL: DIQMTQSPSSVSASVGDRVTITCRASQDINSWLAWYQQKPGKAPKLLIYTSSNLQSGVPSRFSGSGSGTDFTLTISSLQPEDFATYYCQQSDSFPFTFGPGTKVDIKR
notes: Human IgG4 Fc (prefix H4H)
B9: H4H2154P (antibody, human IgG4, V domains shown)
VH: QVQLQESGPGLINPSQTLSVTCTVSGGSISSGGYYWTWIRQHPGKGLEWIGYISYSGNTNYNPSLKSRVTISVDTAKNQFSLKLSSVTAADTAVYFCARDSDVDTAMVDGIDIWGQGTMVTVSS
VL: DIQMTQSPSSVSASVGDRVTITCRASQDISSWLAWYQQKPGRAPKLLIYTASSLQSGVPSRFSGSGSGTDFTLTISSLQPEDFATYFCQQANSFPFTFGPGTKVDIKR
notes: Human IgG4 Fc (prefix H4H)
B10: H4H2146P (antibody, human IgG4, V domains shown)
VH: QVQLVESGGGVVQPGRSLRLSCAASGFTFINYGIHWVRQGPGKGLEWVAVIWYDGSNEWYADSVKGRFTISRDNSKNTVYLEMNKLRAEDTAVYYCAREEEDYGMDVWGQGTTVTVSS
VL: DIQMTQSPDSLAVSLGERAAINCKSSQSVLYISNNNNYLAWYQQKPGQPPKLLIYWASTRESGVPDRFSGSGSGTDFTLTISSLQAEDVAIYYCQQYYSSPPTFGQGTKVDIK
notes: Human IgG4 Fc (prefix H4H)
B11: H4H2140P (antibody, human IgG4, V domains shown)
VH: EVQLVESGGGLVQPGGSLRLSCAASGFSVSYYDMHWVRQVTGKGLEWVSAIGPAGDTYYPGSVKGRFTISREDATNSLYLQIHSLGAGDTAVYYCAREGAIAARPDDYYGMDVWGQGTTVTVSS
VL: DIQLTQSPSFLSASVGDRVTITCWASQDISSYLAWYQQKPGKAPKLLIYAASTLQSGVPSRFSGSGSGTEFTLTISSLQPEDFATYYCQQLNSYPLTFGGGTKVEIKR
notes: Human IgG4 Fc (prefix H4H)
B12: H4H2143P (antibody, human IgG4, V domains shown)
VH: EVQLVESGGGLVQPGRSLRLSCAASGFTFGDYAMHWVRQAPGKGLEWVSGINLNSGTIGYADSVKGRFTISRDNAKNSLYLQMNSLRAEDTAFYYCAKDIDGYYHYAMDVWGQGTTVTVSS
VL: DVVMTQSPSFLSASVGDRVTITCWASQGISSYLAWYQQKPGKAPKLLIYDASTLESGVPSRFSGSGSGTEFTLTISNLQPEDFATYYCQQVNSYPLTFGGGTKVEIKR
notes: Human IgG4 Fc (prefix H4H)
B13: H4H2147P (antibody, human IgG4, V domains shown)
VH: QVQLVESGGGLVKPGGSLRLSCAASGFTFSDFNMGWIRQAPGKGLEWVSHISGSGNVIYYADSVKGRFAISRDNGKNSLYLQVNSLRAEDTAVYYCARDIGDSDAFDIWGQGTMVTVSS
VL: DIQLTQSPSFLSASVGDRVTITCWASQDISSYLAWYQQKPGKAPKLLIYGASTLESGVPSRFSGSGSGTEFTLTISSLQPEDVATYYCQQLNTYPLTFGGGTKVEIKR
notes: Human IgG4 Fc (prefix H4H)
B14: H4H2290P (antibody, human IgG4, V domains shown)
VH: EVQLLESGGGLVQPGGSLRLSCVASGFTFSSFAMSWVRQAPGKGLEWVSVISGSGGSTNHADSVRGRFTISRDNSLNTVYLQMHSLRAEDTALYYCVKAETSSSYFYYGMDVWGQGTTVTVSS
VL: DIQLTQSPSFLSASVGDRVTITCWASQDISSYLAWYQQKPGKVPNLLIYGASSLQPGVPSRFSGSGSGTEFTLTISSLQPEDFATYYCQQLNNYPTFGGGTKLEIKR
notes: Human IgG4 Fc (prefix H4H)
B15: H4H2151P (antibody, human IgG4, V domains shown)
VH: QVQLVESGGGVVQPGRSLRLSCAASGFTFSNYGMHWVRQAPGKGLEWVARIWYDGSNKYYADSVKGRFTISRDSSKNTLYLQMNSLRAEDTAVYYCAREGEQNLDYYPLDVWGQGTTVTVSS
VL: DIVMTQSPSSLSASVGDRVTITCRASQDIRNDLGWYQQKPGKAPKLLIYAASSLQTGVPSRFSGSVSGTDFTLTISSLQPEDFATYYCLQDYTYPLTFGGGTKVEIK
notes: Human IgG4 Fc (prefix H4H)

For one assay, the target named is ErbB3 (cell surface, on MCF-7, DU145, A431 and MCF7 cells) (human, UniProt P21860 20-1342). Nature of the assay: cell-based or functional assay.
Regarding B1, the “Percent inhibition of Akt phosphorylation, 0.01 µg/ml ErbB3 antibody, DU145 cells + 0.5 nM NRG1” value stood at 29%; the “Percent inhibition of Akt phosphorylation, 0.1 µg/ml ErbB3 antibody, DU145 cells + 0.5 nM NRG1” value was found to be 72%; the “Percent inhibition of Akt phosphorylation, 0.5 µg/ml ErbB3 antibody, DU145 cells + 0.5 nM NRG1” value amounted to 75%.
For B2 the same measures were 25%, 63% and 74%.
Consider B3, for which the “Percent inhibition of Akt phosphorylation, 0.01 µg/ml ErbB3 antibody, DU145 cells + 0.5 nM NRG1” value amounted to 22%; the “Percent inhibition of Akt phosphorylation, 0.1 µg/ml ErbB3 antibody, DU145 cells + 0.5 nM NRG1” value was determined as 74%; the “Percent inhibition of Akt phosphorylation, 0.5 µg/ml ErbB3 antibody, DU145 cells + 0.5 nM NRG1” value was found to be 74%.
Take B4: the “Percent inhibition of Akt phosphorylation, 0.01 µg/ml ErbB3 antibody, DU145 cells + 0.5 nM NRG1” value was 16%; the “Percent inhibition of Akt phosphorylation, 0.1 µg/ml ErbB3 antibody, DU145 cells + 0.5 nM NRG1” value was 73%; the “Percent inhibition of Akt phosphorylation, 0.5 µg/ml ErbB3 antibody, DU145 cells + 0.5 nM NRG1” value turned out to be 75%.
Regarding B5, the “Percent inhibition of Akt phosphorylation, 0.01 µg/ml ErbB3 antibody, DU145 cells + 0.5 nM NRG1” value was 11%; the “Percent inhibition of Akt phosphorylation, 0.1 µg/ml ErbB3 antibody, DU145 cells + 0.5 nM NRG1” value was found to be 68%; the “Percent inhibition of Akt phosphorylation, 0.5 µg/ml ErbB3 antibody, DU145 cells + 0.5 nM NRG1” value came out at 73%.
Taken in the same sequence, the figures for B6 were 22%, 66% and 75%.

For a further assay, the target named is T1, ErbB3-mFc. Description: blocking ELISA: antibody (0-50 nM) + 50 pM ErbB3-mFc, binding to coated neuregulin1b. From the text:
To further characterize anti-hErbB3 mAbs of the present invention, their ability to block ligand binding was examined via ELISA. […] Plates were washed and non-sequestered (plate bound) ErbB3 was detected with an anti-Fc poly conjugated with horseradish peroxidase (HRP). Plates were developed with TMB (3,3′,5,5′-tetramethylbenzidine) and neutralized with sulfuric acid before reading absorbance at 450 nm on a Victor X5 plate reader. Data analysis used a sigmoidal dose-response model within Prism™ software. […] Maximal blocking for each antibody was calculated by taking the difference in absorbance from zero to 50 nM antibody on the inhibition curve, divided by the difference in absorbance from 50 pM to zero ErbB3 on the dose curve.
Background: In an ELISA, binding on a coated surface is turned into a signal by an enzyme label.
A word on the IC50: it is the concentration at which inhibition is half-maximal. B7: the IC50 was 74 pM and the “Maximal Blocking (%)” value came to 82%.
On to B8, for which the concentration for half-maximal inhibition (IC50) worked out at 50.8 pM and the “Maximal Blocking (%)” value amounted to 100%.
With B9, the IC50 came out at 90.1 pM and the “Maximal Blocking (%)” value was 91%.
For B10 the same measures were 177 pM and 83%.
For B11 the same measures were 94.6 pM and 83%.
Taken in the same sequence, the figures for B12 were 83.5 pM and 92%.
In the case of B13, the IC50 is 50.6 pM and the “Maximal Blocking (%)” value was determined as 99%.
Taken in the same sequence, the figures for B14 were 66.4 pM and 99%.
Turning to B15, the IC50 was determined as 75.1 pM and the “Maximal Blocking (%)” value came out at 85%.
